Measured values taken from the supplement of paper PMC12042874.
± gives the uncertainty stated by the source.

test: amyloid nucleation score (Sup35N fusion, yeast selection) (log enrichment); library NNK1; higher = more nucleation; inactive = no reads after selection
Procedure, shortened: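 The nucleation score is the DiMSum log enrichment of output over input reads, centred on the mode score of non-aggregating sequences. Only sequences with 100 or more input reads were scored, using Illumina sequencing of input and output plasmid inserts. Psi-negative yeast expressing Sup35N fused to peptides of 20 random codons were induced 24 hours with 100 μM copper sulfate and grown 7 days at 30°C on medium lacking adenine and uracil.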

Substance	amyloid nucleation score
SRLVCLVNYVGGGYIETITL	4.02 ± 0.1
SRNLGMYHMYFKFPWCMNPM	-0.15 ± 0.46
SRNVVLPL	0.195 ± 0.43
SRPDTQPEEAQ	-0.02 ± 0.21
SRPQLDKTLFGLVA	0.771 ± 0.62
SRRYLRVGCKVNVHTFGLYL	-0.502 ± 1
SRVISLPVLKI	-0.302 ± 0.9
SRVLRPS	-0.174 ± 0.4
SRVSLRRQCYVRVNGLCLYI	1.84 ± 0.3
SRVSYPGFYYGCPVFQYYSA	7.589 ± 0.053
SSFSLGSTLF	0.597 ± 0.52
SSFSVVFDSHVSS	0.382 ± 1.4
SSGHSVRVDNKTGVWVWPVG	-0.329 ± 1.6
SSGSMCTLFSSE	1.75 ± 0.57
SSIESSYGKFLRGIVSESIK	0.485 ± 0.55
SSIMHSG	0.925 ± 1.1
SSISV	2.35 ± 0.53
SSLSSMLRGSWAGYVLNCL	inactive
SSLVVWNTQSSTLMTLLSYS	-0.915 ± 0.49
SSNFSPLTIVVYNFCI	7.744 ± 0.051
SSRFVWIASKINILYNFQTY	-0.403 ± 0.7
SSSKGSMENYISYRSL	-0.703 ± 0.32
SSSRNLVSSRCLQVYLPMHA	0.986 ± 0.71
SSSSML	-0.202 ± 0.47
SSSWTTCY	2.15 ± 0.1
SSTAEDTMWARGSNKTLYQS	0.148 ± 0.44

Substance	amyloid nucleation score
SSTFCVAQYQSYWLCEVKWV	0.086 ± 1.4
SSTILQLCSPNRRLRSTKLG	1.97 ± 0.7
SSVFCFIGKASEAVILAIYC	-0.052 ± 0.79
SSYFTKM	0.548 ± 0.34
SSYRNWYRRSGDQLYYLEP	0.876 ± 0.42
SSYVPSCCYWAVWFCVRGKY	1.58 ± 0.46
STFFSY	inactive
STFIDGSGIVALHCNSGCLA	0.86 ± 0.73
STHNTRFGVY	0.167 ± 0.24
STIMMF	0.289 ± 0.52
STLDLLCYFRREADQTINKR	0.336 ± 0.36
STNLMKMWLFHLRDTAR	0.583 ± 0.37
STRICWGTCFDKLDMGGSR	1.95 ± 0.34
STWLLGQRRYPRHKERGRAR	0.101 ± 0.35
SVASRACW	0.139 ± 0.8
SVGGVAGEF	-0.087 ± 0.96
SVGMVLFLGCGLLLFRFLCG	-0.359 ± 1.2
SVKSIRCLCSVVEYKETGHR	0.438 ± 0.34
SVLVWADLCHDTEA	0.42 ± 0.84
SVNRCGVYFTEGFFSLRWS	1.13 ± 0.25
SVPITLIGALGVKM	0.177 ± 0.57
SVPVSTTDWNSGFLWAGGCS	0.513 ± 0.52
SVQDFPDTSNNLASYVPSSW	-0.292 ± 0.74
SVSVNHSLPTLESDL	-0.682 ± 0.62
SVTVM	1.74 ± 0.49
SVVLQTHFAFSSFELKSKVA	-0.54 ± 0.39

Substance	amyloid nucleation score
SVVTFT	0.575 ± 0.49
SVWDERIPGGYSPIRVCPSW	-0.337 ± 0.74
SVWMCM	2.64 ± 0.1
SVWVVCFVSRNVLVMFNSNF	inactive
SWAWIACIGAMNPEN	-0.478 ± 1.4
SWDEAVSWHSRSVVSAGGVA	-0.813 ± 1.3
SWDVAYVSMF	0.124 ± 0.6
SWGMVFLNSRVPWRVMFNSC	0.154 ± 0.48
SWKIFIRIMTDYSIQFAYSY	1.88 ± 0.098
SWLDLNLIDHQAFAFSSFGQ	0.183 ± 0.3
SWMSRKEENSGLILVAVYLV	1.29 ± 0.76
SWQSVSSAISV	-0.234 ± 0.85
SWTTARLNRSRSIFKNLRQE	0.028 ± 0.46
SWWVGTCFSGQWTVLGFP	0.961 ± 0.69
SWYIKVFRFGLFHWSSGVGW	inactive
SYCTGLFWEKRVVIMLVSQV	-0.103 ± 0.53
SYGSKFWEFLHFGESV	-0.179 ± 0.66
SYHNLCGSESGQVVNNQDRM	-0.852 ± 0.51
SYHPLHVCCSSVFRELVIRD	2.11 ± 0.43
SYHVMNKDYMVYFKNTYKDK	4.68 ± 0.078
SYICLHYFCIQ	5.745 ± 0.055
SYIGDCEIFIKEPVGANNLE	-0.909 ± 2.7
SYISLSLISFSVGGSSHFSM	6.96 ± 0.077
SYMGSNSSYYCMRGWGRTWY	2.14 ± 0.095
SYMKQINTGKVFRAHYVLLA	0.117 ± 1.1
SYPKGGLPCGWIRTPPWRFH	0.42 ± 0.59

Substance	amyloid nucleation score
SYPSGSP	-0.061 ± 0.96
SYPTKLPWFGGGYNRGSMSS	-0.481 ± 0.58
SYRSVG	0.25 ± 0.59
SYVPANY	-1.82 ± 1.1
SYVVYCHSAMRRKGSMGRYL	0.468 ± 0.37
SYYMYLN	-0.19 ± 0.26
TADFLCSINEAFSVFTLLRE	1.03 ± 0.93
TAPKIFLGGIL	inactive
TAVGSRGFPRNHLRPKNTSG	-0.309 ± 0.53
TAVVENCLPIWVVYSSKMY	0.018 ± 0.6
TCDFAAWICFYISLWVRVKI	-0.382 ± 0.61
TCFMLKWIKQRLIDGSVKGR	0.512 ± 1.2
TCILDHGPSMGRHSLGALIL	-0.969 ± 1.1
TCMTRTLYIL	-0.092 ± 0.37
TCMWMILLFINR	0.608 ± 0.27
TCVIFLVLCQALSFPVLALC	0.095 ± 0.79
TDEGLVCHK	0.522 ± 0.75
TDEVDDIQF	0.552 ± 0.59
TDGQWMSYSFSAFASYVVLG	-0.179 ± 0.58
TDIFCP	-1.47 ± 1.7
TDIHTVHRSNLVKVLRKGMN	-0.411 ± 0.53
TDLFYMMCSRRQTYVCNLVR	0.456 ± 0.43
TDNMWCSNVIFLECTN	4.07 ± 0.12
TDYSFKLFTFFSSESNGFPI	-1.01 ± 1
TEELYTGVTFL	-1.93 ± 1.5
TEGFNTANA	-0.34 ± 1.1

Substance	amyloid nucleation score
TELGVSPIAKRRNSVLDHAL	-0.449 ± 1.1
TELSEHVRSRLWSKG	0.355 ± 0.42
TENVLLTYVFYAKSRLGSVV	0.921 ± 0.56
TETLADVLALERLPGCMKFI	0.259 ± 0.68
TFFLVLVSPD	0.059 ± 1.4
TFLNFWPQFCMEFY	5.98 ± 0.06
TFNVVNPMVTYN	-0.776 ± 0.3
TFQGARYYYWPAVF	1.33 ± 0.63
TFSHWPLWNVYRSFAFTCRP	0.871 ± 0.47
TFSQWWVRSCFGTRMNWCLV	0.174 ± 1.2
TFTFVFW	3.46 ± 0.13
TFVVELS	-1.64 ± 2.4
TFYRLSISVVSLNMVIHPGP	1.5 ± 0.2
TGASLLVAHRTYSEIILRCD	0.606 ± 0.49
TGATATYKFFIFFIL	1.28 ± 0.22
TGCGERWGQSMVIGVSL	-0.102 ± 0.62
TGEPKRS	1.58 ± 0.49
TGKNSC	3.44 ± 0.099
TGNYDYVSFNQRKLHGCFNQ	-0.652 ± 0.93
TGRCR	inactive
TGRYISDYCVIKAYVYSICD	-0.135 ± 0.39
TGTSSPMRPLH	0.532 ± 0.69
TGVCTGECWYRGLVQSCSGA	-0.239 ± 0.53
THCVSLLGIYFFSSWVMIVR	-0.266 ± 0.4
THFRCH	0.762 ± 0.8
THNSLFSHVSWYRCVSSGVF	0.304 ± 1.1

Substance	amyloid nucleation score
TIECFYGVVSFRHNQYYGAQ	2.16 ± 0.17
TIFLQALGYSRWLLEISMDR	-1.06 ± 0.96
TIFVPGALVDFAAGGTHQLI	-0.088 ± 1.3
TIFVYSKTNL	2.64 ± 0.18
TITIVVRYVETRCGNIRDVE	0.794 ± 0.45
TIVFMRAHIFW	0.788 ± 0.25
TIVRGSNYRPPVWPSDY	-0.535 ± 1.1
TIWDSRTSFVYS	0.254 ± 0.56
TIYISVSNRSVDSKDMGYGS	inactive
TKDRFYEC	0.419 ± 0.58
TKYCFPFNFQGSLHQWRRRF	0.972 ± 0.52
TLHTKSGLNIMARYPMAERG	1.31 ± 0.8
TLITWTLVSVGIWTMQS	1.56 ± 0.53
TLKHLNATISHT	1.1 ± 0.71
TLLYPYMVPLRRKSLWGAVR	1.36 ± 0.35
TLNSPECDPNLSLML	-0.555 ± 1.1
TLRLSFCRYMAFWHCNRSMA	-1.14 ± 1.1
TLRMGESCFKWWYQIFIQLF	0.275 ± 0.93
TLRYKNT	0.371 ± 0.76
TLSPTAGPAVVALILYGSLT	1.17 ± 0.65
TLSRFPLAALNLVRVR	0.3 ± 0.86
TLSTVTG	0.357 ± 0.37
TLTRYC	-0.086 ± 1.2
TLTSRVENKFRMVIL	3.46 ± 0.088
TLVIVTFFMIFIGMVSVFYR	1.27 ± 0.25
TMDDYPLDLHCWAGS	0.767 ± 1

Substance	amyloid nucleation score
TMFHLWNFGCVALVR	-0.104 ± 0.34
TMQFFHERGYLLKSRYAGAW	-0.273 ± 0.98
TMSASLNYLTLVMN	0.129 ± 0.59
TMTFPKVLWPCGLVRNFCST	-0.294 ± 0.67
TMTVSFPRLEKCTSK	0.169 ± 0.35
TMYPLIRLYGSMSRNETGEW	0.437 ± 0.33
TMYSVYRFVGCKKSFMVRKG	0.454 ± 0.4
TNFFGSPCAMCNFSLDICSK	8.038 ± 0.057
TNFYAVFLLLGGSGF	7.171 ± 0.051
TNILLLHFSDHEFGLEFRYL	1.68 ± 0.17
TNPLDPLLCNVYQVLDMPCM	0.497 ± 0.58
TNRPAPLPSYRTILCK	0.7 ± 0.97
TNSCNLELAVICMSSYWG	4.71 ± 0.069
TNVKQQACRLRSS	4.83 ± 0.063
TPKLIAV	-2.05 ± 1.9
TPRYVLLVC	-0.983 ± 2.4
TQMMDALFLSAL	0.935 ± 0.79
TQMNR	-0.89 ± 0.51
TRALSFN	-0.873 ± 1.6
TRHGLGRFVHSRTVVFIGIW	-0.642 ± 0.82
TRNFKQK	-1.78 ± 1.8
